Assay results published in publication PMC4164784, “4E-BPs require non-canonical 4E-binding motifs and a lateral surface of eIF4E to repress translation” (Nature Communications, 2014).
pKd: −log10 of the molar value. No end group written: not given here.

Tests used:
[1] = molecular target: T1, Dm eIF4E II-AA mutant (I96A, I112A; residues 69–248) (Drosophila melanogaster, UniProt P48598, I107A/I123A); assay: ITC, binding to eIF4E II-AA mutant (residues 69–248); settings: for affinity for eIF4E II-AA mutant relative to WT (in words): bipartite peptides (C+NC) or eIF4G, lateral-surface mutant vs WT
T1 construct: The solution of eIF4E (residues 69–248, WT or mutant: 1–20 μM) in the calorimetric cell; His6 (N, cleaved yes); made in house; host or cells: E. coli BL21 Star (DE3)
T1 sequence (P48598 80-259 I107A/I123A): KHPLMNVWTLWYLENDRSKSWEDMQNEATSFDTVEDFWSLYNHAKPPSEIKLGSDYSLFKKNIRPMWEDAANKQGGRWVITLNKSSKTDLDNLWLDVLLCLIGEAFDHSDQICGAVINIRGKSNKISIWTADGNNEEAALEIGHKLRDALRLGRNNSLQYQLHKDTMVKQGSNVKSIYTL
Method: Unless indicated otherwise, all the proteins were expressed in E. coli BL21 Star (DE3) cells (Invitrogen) that were grown in LB medium overnight at 20 °C. The lysis buffers were supplemented with DNaseI (5 μg ml^−1), lysozyme (1 mg ml^−1) and protease inhibitor cocktail (Roche). The truncated His6-eIF4E (residues 69–248) that was used in the ITC experiments and in Figs 2c and 5b was purified in lysis buffer containing 50 mM HEPES (pH 7.2), 300 mM NaCl, 20 mM imidazole and 2 mM β-mercaptoethanol using Ni^2+-affinity chromatography (HisTrap HP 5 ml, GE Healthcare) and eluted with a gradient of 20–500 mM imidazole. After the cleavage of the His6-tag with HRV3C protease (homemade), the protein was further purified using a heparin column (HiTrap Heparin HP 5 ml, GE Healthcare), followed by size exclusion chromatography (Superdex 75 16/60, GE Healthcare) in 20 mM Na-phosphate (pH 7.0), 300 mM NaCl and 2 mM dithiothreitol (DTT).
For the ITC measurements and the competition assays shown in Figs 4 and 5d–g, the 4E-BP peptides corresponding to the canonical (C) motifs, the combined (C+NC) motifs or L+NC were expressed with an HRV3C cleavable N-terminal MBP-tag and a non-cleavable C-terminal GB1 domain. The cells were lysed by sonication in lysis buffer containing 50 mM HEPES (pH 7.2), 300 mM NaCl and 2 mM DTT. The proteins were purified from the cleared lysates using amylose resin (New England Biolabs) followed by the cleavage of the MBP tag with HRV3C protease overnight at 4 °C. The proteins were further purified by size exclusion chromatography (Superdex 75 16/60, GE Healthcare) in 20 mM Na-phosphate (pH 7.0), 300 mM NaCl and 2 mM DTT. For the eIF4G fragment (residues 578–650) the MBP was removed after cleavage with TEV protease through an additional anion exchange chromatography (HiTrap Q HP 5 ml, GE Healthcare) before the final gel filtration.
The ITC experiments were performed using a VP-ITC microcalorimeter (MicroCal) at 20 °C. The solution of eIF4E (residues 69–248, WT or mutant: 1–20 μM) in the calorimetric cell was titrated with tenfold concentrated solutions of GB1-stabilized peptides corresponding to 4E-BPs C+NC (10 μM), C (50 μM), L+NC (100 μM CUP, 200 μM Thor and 4E-T) or eIF4G (residues 578–650, 20 μM) that were dissolved in the same buffer (20 mM Na-phosphate (pH 7.0) and 150 mM NaCl). The titration experiments consisted of an initial injection of 2 μl followed by 28 injections of 10 μl at an interval of 240 s. Each binding experiment was repeated twice. The thermodynamic parameters were estimated using a one-site binding model (Origin version 7.0), whereby the datapoint of the first injection was removed for the analysis.
mutant (residues 69-248) and CUP (a), Thor (b), 4E-T (c) and eIF4G (d) peptides. The
measurements were performed as described in Supplementary Fig. 3. The solutions
contained the 4E-BP C+NC peptides (10 µM) and 20 µM for the eIF4G peptide. The eIF4E
II-AA mutant concentration in the calorimetric cell was 5 µM.

[2] = test system: eIF4E (II-AA mutant)–eIF4G complex; assay: Competition assay, displacement of GST-eIF4G from preassembled eIF4E (II-AA)–eIF4G complexes; format: biochemical, Drosophila melanogaster; settings: Fig. 4; 2 μM complex, GB1-fused competitor, 20 min at 4 °C, Strep-Tactin pull down; n=2
Method: To obtain the preassembled eIF4E–eIF4G complexes used in Figs 4 and 5d–g, full-length eIF4E (WT or the II-AA mutant) containing an N-terminal SNH-tag was coexpressed with an N-terminal GST-tagged eIF4G (residues 578–650). The cells were lysed by sonication in lysis buffer containing 50 mM HEPES (pH 7.2), 300 mM NaCl and 2 mM DTT. The complexes were purified from the cleared lysates using Protino Glutathione Agarose 4B beads (Machery-Nagel). The complex was further purified using a heparin column (HiTrap Heparin HP 5 ml, GE Healthcare) and a final size exclusion chromatography (Superdex 200 16/60, GE Healtcare) in 20 mM HEPES (pH 7.2), 200 mM NaCl and 2 mM DTT.
For the titration experiments shown in Fig. 4, 2 μM of purified complexes containing SHN-eIF4E (WT or II-AA mutant) bound to GST-eIF4G (residues 578–650) were incubated with increasing amounts (2–20 μM) of purified competitor proteins for 20 min at 4 °C. The eIF4E-bound proteins were recovered via Strep-Tactin Sepharose pull down and eluted with lysis buffer containing 2.5 mM desthiobiotin. The proteins were analyzed by 15% SDS–PAGE followed by staining with Coomassie blue staining. […]
presence of MBP (negative control), increasing amounts of 4E-BP peptides or eIF4G-GB1 in […]
The amounts of GST-eIF4G bound to eIF4E in each experimental condition were determined using the Image J software after Coomassie blue staining. To rule out the possibility that changes in the amount of GST-eIF4G bound to eIF4E resulted from variations in the loading volume, all values were normalized to the levels of SHN-eIF4E present in each condition. These values were set to 100 in the presence of MBP.
Each experiment was repeated at least twice. (e,f) Quantification of the experiments shown in Fig. 5d–g. The amounts of GST-eIF4G remaining bound to eIF4E in the presence of MBP, 4E-BP peptides or eIF4G-GB1 were normalized to those of eIF4E and set to 100 in the presence of MBP. […]
micrographs of fixed S2 cells expressing HA-4E-T and GFP-Tral. The localization of HA-4E-T was determined by indirect immunofluorescence using an anti-HA antibody. […]

[3] = eIF4E II-AA (69–248), 20 °C, pH 7.0

Q: With “4E-T C+NC: 4E-T residues 9–44, eIF4E-binding region short, C-terminal GB1” as the substance, how does the “affinity for eIF4E II-AA mutant relative to WT (in words)” value [1] read?
A: The value was “not significantly affected”.

Q: And the TΔS [1, 3]?
A: Its TΔS is 2.16 kcal/mol.

Q: What about the ΔG [1, 3] of the same substance?
A: The ΔG was -10.80 kcal/mol.

Q: And the “displacement of eIF4G from eIF4E II-AA–eIF4G complex (in words)” value [2]?
A: The value was “did not efficiently displace eIF4G”.

Q: What does the source list for “CUP C+NC: CUP residues 325–376, eIF4E-binding region short, C-terminal GB1 (KSYTRSRLMDIRNGMFNALMHRSKESFVMPRIATCDDIELEGRLRRMNIWRT-GB1; UniProt Q9VMA3 325-376, looked up, fragment)”?
A: pKd ([1]; VP-ITC, 20 °C, 20 mM Na-phosphate (pH 7.0), 150 mM NaCl, GB1-fused C+NC peptides (10 μM) or eIF4G (20 μM) into eIF4E II-AA 5 μM, one-site model, each experiment repeated twice): 7.30; affinity for eIF4E II-AA mutant relative to WT (in words) [1]: reduced by one and two orders of magnitude, respectively; TΔS [1, 3]: 8.79 kcal/mol; ΔG [1, 3]: -9.84 kcal/mol; ΔH [1, 3]: -18.6 ± 0.7 kcal/mol; displacement of eIF4G from eIF4E II-AA–eIF4G complex (in words) [2]: did not efficiently displace eIF4G

Q: Which “affinity for eIF4E II-AA mutant relative to WT (in words)” value [1] does the source give for “Thor C+NC: Thor residues 50–83, eIF4E-binding region short, C-terminal GB1 (TKLIYERAFMKNLRGSPLSQTPPSNVPSCLLRGT-GB1; UniProt Q9XZ56 50-83, looked up, fragment)” here?
A: Its value is “reduced by one and two orders of magnitude, respectively”.

Q: And the TΔS [1, 3]?
A: Its TΔS is -0.91 kcal/mol.

Q: And the ΔG [1, 3]?
A: Its ΔG is -8.46 kcal/mol.

Q: What about the “displacement of eIF4G from eIF4E II-AA–eIF4G complex (in words)” value [2] of the same substance?
A: The value was “did not efficiently displace eIF4G”.
